Where two headings read alike, the source gives them in different places.
Tests used:
[1] = target: T1, recombinant human 5T4 ECD protein fused to human Fc (human, UniProt Q13641 32-355); experiment: Octet, mAb on AMC sensor, 5T4-ECD Fc as analyte
T1 construct: extracellular domain; Immunogen, ELISA antigen and Octet analyte; also called 5T4-ECD-hFc; 5T4-ECD-Fc; not shown: human Fc
T1 sequence (looked up): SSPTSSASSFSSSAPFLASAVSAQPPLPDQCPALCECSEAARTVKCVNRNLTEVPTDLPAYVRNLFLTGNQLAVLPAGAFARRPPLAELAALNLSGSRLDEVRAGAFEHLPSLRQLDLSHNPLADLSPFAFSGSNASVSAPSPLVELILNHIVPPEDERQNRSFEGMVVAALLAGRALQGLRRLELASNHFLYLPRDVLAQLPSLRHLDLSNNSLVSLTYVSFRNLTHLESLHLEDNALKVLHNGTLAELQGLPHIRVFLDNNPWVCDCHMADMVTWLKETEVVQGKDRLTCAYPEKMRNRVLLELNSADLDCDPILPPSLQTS
Method: (§1) Binding Affinities by Octet Test. Briefly, mAb were analyzed by Octet RED 384 instrument, where human 5T4-ECD Fc antigen at 200 nM and 100 nM served as the analyte and the purified mAbs at 5 μg/ml served as the ligand, bound to AMC sensor (anti mouse Fc antibody) with immobilized phase of 180 s, association phase of 300 s, dissociation phase of 180 s.
(§2) FIGS. 7A-7G present the Octet data determined the KD affinities of selected mAb.

[2] = target: T1, recombinant human 5T4 ECD protein fused …; experiment: Octet, mAb on AMC sensor, 5T4-Fc as analyte
Method: as §1, §2

cyno 5T4 on CHO cells [3] = target: T2, cyno 5T4 on CHO cells (cyno, UniProt Q4R8Y9 35-420); experiment: FACS, CHO cells over expressing cyno 5T4
T2 construct: whole, on cells; also called CHO over expressing cyno 5T4
T2 sequence (looked up): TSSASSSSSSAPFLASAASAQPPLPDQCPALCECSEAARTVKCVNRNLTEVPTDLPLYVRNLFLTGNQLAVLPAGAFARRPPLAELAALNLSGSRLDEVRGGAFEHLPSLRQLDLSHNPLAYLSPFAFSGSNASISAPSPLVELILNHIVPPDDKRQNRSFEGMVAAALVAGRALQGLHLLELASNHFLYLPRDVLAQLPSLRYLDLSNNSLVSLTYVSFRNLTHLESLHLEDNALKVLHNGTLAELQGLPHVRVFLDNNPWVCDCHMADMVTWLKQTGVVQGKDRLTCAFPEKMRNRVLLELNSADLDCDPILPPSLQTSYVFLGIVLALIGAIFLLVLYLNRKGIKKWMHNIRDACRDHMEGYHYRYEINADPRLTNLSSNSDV

[4] = target: T1, recombinant human 5T4 ECD protein fused …; experiment: ELISA, coated 5T4 antigen
cyno 5T4 on CHO cells [5] = target: T2, cyno 5T4 on CHO cells; experiment: FACS, CHO cells over expressing cyno 5T4; remark: listed apart in the source
human 5T4 on cells [6] = target: T3, human 5T4 on cells (human, UniProt Q13641 32-420); experiment: FACS, CHO cells over expressing human 5T4
T3 construct: whole, on cells; also called CHO cells over expressing human 5T4; MCF-7 (endogenous 5T4)
T3 sequence (looked up): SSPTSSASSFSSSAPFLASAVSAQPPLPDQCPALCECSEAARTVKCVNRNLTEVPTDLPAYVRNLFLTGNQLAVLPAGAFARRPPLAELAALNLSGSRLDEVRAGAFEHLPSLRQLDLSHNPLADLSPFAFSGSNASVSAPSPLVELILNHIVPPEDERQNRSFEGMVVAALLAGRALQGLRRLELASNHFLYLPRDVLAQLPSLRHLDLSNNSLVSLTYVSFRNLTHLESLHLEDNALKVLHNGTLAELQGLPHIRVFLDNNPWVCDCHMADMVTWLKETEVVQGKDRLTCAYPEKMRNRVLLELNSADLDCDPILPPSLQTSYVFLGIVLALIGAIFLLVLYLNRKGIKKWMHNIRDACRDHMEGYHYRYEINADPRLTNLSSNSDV

[7] = target: T1, recombinant human 5T4 ECD protein fused …; experiment: ELISA, coated 5T4 antigen; remark: listed apart in the source
cyno 5T4 on CHO cells [8] = target: T2, cyno 5T4 on CHO cells; experiment: FACS, CHO cells over expressing cyno 5T4; remark: listed apart in the source
[9] = target: T1, recombinant human 5T4 ECD protein fused …; experiment: ELISA, coated 5T4 antigen; remark: listed apart in the source
[10] = target: T4, h5T4-His (cat #19845-H08H, Sino Biological) (human, UniProt Q13641 32-355); experiment: ELISA on recombinant 5T4 protein; ELISA on recombinant 5T4 protein
T4 construct: also called recombinant 5T4 protein; 5T4 recombinant antigen protein; not shown: His tag
T4 sequence (looked up): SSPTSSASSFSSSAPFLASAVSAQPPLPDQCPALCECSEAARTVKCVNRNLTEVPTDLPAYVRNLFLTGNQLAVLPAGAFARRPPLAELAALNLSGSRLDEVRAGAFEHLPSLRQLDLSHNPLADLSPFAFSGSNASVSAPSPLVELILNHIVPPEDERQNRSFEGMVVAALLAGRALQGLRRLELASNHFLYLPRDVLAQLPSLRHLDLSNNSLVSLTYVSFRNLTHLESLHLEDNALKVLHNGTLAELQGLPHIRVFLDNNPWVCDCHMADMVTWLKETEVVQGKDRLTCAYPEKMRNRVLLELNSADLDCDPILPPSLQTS

human 5T4 on cells [11] = target: T3, human 5T4 on cells; experiment: FACS on CHO over expressing human 5T4; FACS, CHO over expressing human 5T4
human 5T4 on cells [12] = target: T3, human 5T4 on cells; experiment: FACS on MCF-7 cells endogenously expressing 5T4; FACS, MCF-7 endogenously expressing 5T4
cyno 5T4 on CHO cells [13] = target: T2, cyno 5T4 on CHO cells; experiment: FACS on CHO over expressing cyno 5T4 (data not shown); FACS, CHO over expressing cyno 5T4
[14] = target: T1, recombinant human 5T4 ECD protein fused …; experiment: ELISA, coated 5T4 antigen; remark: listed apart in the source
human 5T4 on cells [15] = target: T3, human 5T4 on cells; experiment: FACS, CHO cells over expressing human 5T4; remark: listed apart in the source
[16] = target: T1, recombinant human 5T4 ECD protein fused …; experiment: Octet (data not shown; antigen format not stated here)

B1: mAb005 (antibody, V domains shown)
VH: EVQLVESGGGLVQPKGSLQLSCAASGFTFNTYAMHWVRQAPGKGLEWVARIRSKSSNYATYYADSVKDRFTISRDDSQSMLYLQMNNLKTEDTAMYYCVRDGDYYYGSRPSYWYFDVWGTGTTVTVSS
VL: DILLTQSPAILSVSPGERVSFSCRASQSIGTNIHWYQQRTNGSPRLLIKYASESISGIPSRFSGSGSGTDFTLSINNVESEDIADYYCQQTNTWPLTFGAGTKLDLK
notes: also called IM, 5T4 mouse hybridoma cl-5
[1]
  Kd: 2.69 nM
[2]
  koff: 0.00024 s⁻¹
  kon: 89300 M⁻¹ s⁻¹

B2: mAb006 (antibody, V domains shown)
VH: EVQLVESGGGLVKPGGSLKLSCAASGFTFSNYVMSWVRQTPEKRLEWVATISDRGSYTYYPDYVKGRFTISRDNAKNNLYLQMSHLKSEDTAMYYCARASYYSNLGFAYWGQGTLVTVSA
VL: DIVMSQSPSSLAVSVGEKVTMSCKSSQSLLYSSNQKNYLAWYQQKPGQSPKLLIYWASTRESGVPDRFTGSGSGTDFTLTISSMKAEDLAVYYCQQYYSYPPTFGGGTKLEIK
notes: also called IM, 5T4 mouse hybridoma cl-6
[1]
  Kd: 5.67 nM
Cyno 5T4 on CHO cells [3]
  binding result: binds
[2]
  koff: 0.00125 s⁻¹
  kon: 220000 M⁻¹ s⁻¹

B3: mAb008 (antibody, V domains shown)
VH: QVQLQQSGAELMKPGASVKLACKATGYTFTAYWIEWVKQRPGHGLEWIGEILPGRGSTNSNEKFKGKATFTADTSSNTVYMQLSSLTTEDSAIFYCARGYRDFDYWGQGTTLTVSS
VL: DIVMTQSQKFMSTTVGDRVSIICKASQNVGTAVAWYQQKPGQSPKVLIYSASNRYTGVPDRFTGSGSGTDFTLTISNMQSEDLADYFCQQYTSYPRTFGGGTKLEIK
notes: also called IM, 5T4 mouse hybridoma cl-8
[4]
  EC50 (read off the curve): ~0.3 nM
[1]
  Kd: 0.209 nM
Cyno 5T4 on CHO cells [5]
  EC50 (read off the curve): ~5 nM
Human 5T4 on cells [6]
  EC50 (read off the curve): ~5 nM
[2]
  koff: 3.87e-05 s⁻¹
  kon: 185000 M⁻¹ s⁻¹

B4: mAb010 (antibody, V domains shown)
VH: QVQLRQSGAELMKPGASVKLSCKATGYTFTGYWIEWVKQRPGHGLEWIGEILPGRGSSNYNEKFKGKATLTADTSSNTVYMQLSSLTIEDSAIYYCARGGRDFDYWGQGTTLTVSS
VL: DIQMTQITSSLSASLGDRVTIGCSASQGINNNLNWYQQKPDGTVKLLVYYTSSLHSGVPSRFSGSGSGTDYSLTISNLEPEDIATYYCQQFIKLPYTFGGGTKLEIK
notes: also called mAb10; IM, 5T4 mouse hybridoma cl-10
[4]
  EC50 (read off the curve): ~0.3 nM
[1]
  Kd: 0.463 nM
Cyno 5T4 on CHO cells [5]
  EC50 (read off the curve): ~4 nM
Human 5T4 on cells [6]
  EC50 (read off the curve): ~3 nM
[2]
  koff: 9.53e-05 s⁻¹
  kon: 206000 M⁻¹ s⁻¹

B5: mAb016 (antibody, V domains shown)
VH: AVQLQQSGPVRVKPGASVKMSCKASGYPFTDYYMNWVKQSHGRSLDWIGVFNPYNGDTRYTQKFKDKATLTIDKSSSTAYMELNSLTSEDSAVYYCARLRLLYDTSEYYVMDYWGQGTSVTVSS
VL: ENVLTQSPAIMSASPGEKVTMTCSASSSVNYMHWYQQKSNTSPKLWIYDTSKLASGVPGRFSGSGSGNSYSLTISSMEAEDVATYFCFQGSGYPYTFGGGTKLEIK
notes: also called mAb0016; IM, 5T4 mouse hybridoma cl-16
[7]
  EC50 (read off the curve): ~0.2 nM
[1]
  Kd: 0.232 nM
[2]
  koff: 3.48e-05 s⁻¹
  kon: 150000 M⁻¹ s⁻¹

B6: mAb018 (antibody, V domains shown)
VH: EVQLRQSGPVLVKPGASLKMSCKASGFTIADYYMTWVTQSHGQSLDWIGLINPYSGETTYNQKFKGKATLSVDKSSNTAYMDLNSLTSEDSAVYYCARWRLGYYAMDYWGRGTSVTVSS
VL: ENVLTQSPAIMSASPGEKVTMTCSASSSVSYMHWYQQKSSTSPKVWIYDTSKLASGVPGRFSGSGSGNSYSLTISSMEAEDVATYYCFQGIGYPYTFGGGTKLEIK
notes: also called IM, 5T4 mouse hybridoma cl-18
[7]
  EC50 (read off the curve): ~0.3 nM
[1]
  Kd: 0.269 nM
Cyno 5T4 on CHO cells [8]
  binding result: binds
[2]
  koff: 6.97e-05 s⁻¹
  kon: 259000 M⁻¹ s⁻¹

B7: mAb014 (antibody, V domains shown)
VH: QVQLQQSGGELMKPGASVKLSCKATGYKFTGYWIEWVKQRPGHGLEWIGEILPGRGSTNYNEKFKGKATFTADTSSNTVYMQLSSLTTEDSAIYYCARGGRDFDFWGQGSTLTVSS
VL: DIQMTQTTSSLSASLGDRVTISCSASQGINSNLNWYQQKPDGTVKLLIYYTSSLHSGVPSRFSGSGSGTDYSLTISNLEPEDIATYYCQQYNKLPYTFGGGTKLEIK
notes: also called IM, 5T4 mouse hybridoma cl-14
[9]
  EC50 (read off the curve): ~0.2 nM
Cyno 5T4 on CHO cells [8]
  binding result: binds

B8: mAb008-hIgG1 chimeric Ab (antibody, V domains shown)
VH: QVQLQQSGAELMKPGASVKLACKATGYTFTAYWIEWVKQRPGHGLEWIGEILPGRGSTNSNEKFKGKATFTADTSSNTVYMQLSSLTTEDSAIFYCARGYRDFDYWGQGTTLTVSS
VL: DIVMTQSQKFMSTTVGDRVSIICKASQNVGTAVAWYQQKPGQSPKVLIYSASNRYTGVPDRFTGSGSGTDFTLTISNMQSEDLADYFCQQYTSYPRTFGGGTKLEIK
notes: Mouse VH and VL of mAb008 cloned into human IgG1
[10]
  EC50: 0.4 nM
Human 5T4 on cells [11]
  EC50: 5 nM
Human 5T4 on cells [12]
  EC50: 4.4 nM
Cyno 5T4 on CHO cells [13]
  EC50: 5.7 nM

B9: mAb003 (antibody, V domains shown)
VH: QVQLQQSGAELMKPGASVKLSCKATGYTFTGYWIEWVKQRPGHGLEWIGEILPGRDSTNSNEKFKGKATFTADTSSNTVYMQLSSLTTEDSAIFYCARGYRDFDYWGQGTTLTVSS
VL: DIVMTQSQKFMSTTVGDRVSIICKASQNVGTAVAWYQQKPGQSPKVLIYSASNRYTGVPDRFTGSGSGTDFTLTISNMQSEDLADYFCQQYSSYPRTFGGGTKLEIK
notes: also called IM, 5T4 mouse hybridoma cl-3
[14]
  EC50 (read off the curve): ~0.4 nM
Cyno 5T4 on CHO cells [3]
  EC50 (read off the curve): ~5 nM
Human 5T4 on cells [15]
  EC50 (read off the curve): ~4 nM

B10: mAb016-hIgG1 chimeric Ab (antibody, V domains shown)
VH: AVQLQQSGPVRVKPGASVKMSCKASGYPFTDYYMNWVKQSHGRSLDWIGVFNPYNGDTRYTQKFKDKATLTIDKSSSTAYMELNSLTSEDSAVYYCARLRLLYDTSEYYVMDYWGQGTSVTVSS
VL: ENVLTQSPAIMSASPGEKVTMTCSASSSVNYMHWYQQKSNTSPKLWIYDTSKLASGVPGRFSGSGSGNSYSLTISSMEAEDVATYFCFQGSGYPYTFGGGTKLEIK
notes: Mouse VH and VL of mAb016 cloned into human IgG1; also called mAb0016-IgG1
[16]
  Kd: 14.7 nM
[10]
  EC50: 0.3 nM
Human 5T4 on cells [11]
  EC50: 1.1 nM
Human 5T4 on cells [12]
  EC50: 0.9 nM
Cyno 5T4 on CHO cells [13]
  EC50: 2.2 nM

Source: patent US20240228658A1 (IMMUNORIZON, published 2024)
